Measurements: patent publication US8076087B2, “Galectin sequences and compositions and methods utilizing same for treating or diagnosing arthritis and other chronic inflammatory diseases” (Medical Research Fund of Tel Aviv Souraskv Medical Center, priority 2002, dated 2011)

Assays:
IL-1β [1] = assay: IL-1β levels in media of NIH 3T3 fibroblasts (negative control cells); format: cell-based, murine; details: LPS 3 μg/ml, 50-2000 ng/ml, 48 hours
Procedure: (§1) Inflammatory cells and PBLs derived from joints of rheumatoid arthritic (RA) patients were cultured individually [RPMI-1640 (Sigma, Israel)]. The murine fibroblast line, NIH 3T3, was used as a control. The recombinant galectin-8 peptide (r-galectin-8) was added to the culture medium of the synovial fibroblasts at a concentration of 0.125 μM, 0.25 μM, 0.5 μM and 1 μM) together with lipopolysaccharide (LPS, 3 μg/ml). The recombinant galectin-8 peptide variants (r-galectin-8 variant 1 and r-galectin-8 variant 2) were added to all the culture mediums in the following concentrations: 50 ng/ml, 125 ng/ml, 250 ng/ml, 500 ng/ml, 750 ng/ml, 1 μg/ml and 2 μg/ml together with lipopolysaccharide (LPS, 3 μg/ml). Following 48 hours of incubation (37° C., 5% CO2), the measurement of IL-1β, TNF-α and IL-1ra production was performed in supernatants by quantitative sandwich enzyme immunoassay technique (R&D Systems, Inc., USA). Detection limits were 1 pg/ml to 14 pg/ml. IL-1ra production was tested with and without the addition of lipopolysaccharide (LPS, 3 μg/ml) to the culture media.

IL-1β [2] = assay: IL-1β levels in media of LPS-supplemented human synovial tissue / cell cultures, sandwich enzyme immunoassay; format: cell-based; details: LPS 3 μg/ml, 50-2000 ng/ml, 48 hours
Procedure: (§2) Specimen Selection and Culture Conditions: Synovial tissues were obtained from patients undergoing total knee or hip replacement for osteoarthritis (OA). Within 2 hours of removal, synovial tissues were cut into small pieces, of a few millimeters in diameter. Synovial fibroblasts were cultured in 2 ml RPMI 1640 supplemented with 2 mM L-glutamine, 100 U/ml penicillin and 100 μg/ml streptomycin sulphate (Biological Industries).
as §1

IL-1ra [3] = assay: IL-1ra levels in media of LPS-supplemented human synovial tissue / cell cultures, sandwich enzyme immunoassay; format: cell-based; details: LPS 3 μg/ml, 50-2000 ng/ml, 48 hours
Procedure: as §2, §1

[4] = system: PBLs of arthritic patients; assay: Apoptosis induction, annexin V/PI flow cytometry, PBLs; format: cell-based, human; details: lowest concentration 50 ng/ml
Procedure: (§3) The assay was performed by Phosphatidyl Serine Detection Kit (IOP-116F FITC-conjugated, IQ Products, The Netherlands) using the manufacturer instructions. Human fibroblast cells from OA patients, synovial fluid cells and PBLs from RA and other arthritic patients were incubated with increasing concentrations of galectin-8 variants 1 and 2 (50-2000 ng/ml). Specific binding of annexin V was performed by the incubation of cells for 20 minutes on ice in a binding calcium buffer containing a saturating concentration of annexin V-fluorescein isothiocyanate (FITC) and propdium iodide (PI). After incubation, the cells were pelleted, and analyzed in FACS analyzer (Beckton Dickinson, San Jose, Calif.). Annexin V^+/PI^+ cells were defined as necrotic, while annexin V^+/PI^− cells were defined as apoptotic. The percent of the apoptotic cells of the total cells was determined.

IL-1ra [5] = assay: IL-1ra levels in media of NIH 3T3 fibroblasts (negative control cells); format: cell-based, murine; details: LPS 3 μg/ml, 50-2000 ng/ml, 48 hours
Procedure: as §1

[6] = system: collagen induced arthritis (CIA); assay: Histopathological examination of rear footpad joints of CIA mice; format: in vivo, DBA/1 mice; details: compared with joints of arthritic mice treated with PBS or PBS+30% glycerol
Text: Histopathological examination: The rear footpad joints of 5 arthritic mice that received PBS or PBS+30% glycerol (group 1, negative control), 2 arthritic mice that received anti-mouse-TNFα mAb (group 2, positive control), 3 arthritic mice that received human galectin-8 protein (group 3, positive control), 3 normal healthy mice and 5 arthritic mice that received human galectin-8 variant 1 (group 4) were sent to an accredited pathological laboratory (Patho-Lab, Kiryat Weitzmann, Rehovot) for histopathological examination.
Quantification of the arthritic changes was made subjectively based on degree of articular destruction and following evaluation of the different parameters often observed in arthritic joints. The definition of the parameters quantitated were: • 1. Cellularity within the joint: Cells present couldn't be identified due to loss of cellular morphology (decal), therefore red blood cells and leukocytes were all graded together. • 2. Presence of fibrin in the joint: Fibrin was present in apparently more acute lesions, but the amount of fibrin was proportionally small. • 3. Cartilage loss: Cartilage surfaces were evaluated in the section, slight changes of irregularity of the surface were noted. • 4. […] Synovial cell loss: Identification of synovial cells was difficult due to poor cellular morphology, but in general synovial surfaces were evaluated for integrity. • 6. […]

TNFα [7] = assay: TNFα levels in media of LPS-supplemented human synovial tissue / cell cultures, sandwich enzyme immunoassay; format: cell-based; details: LPS 3 μg/ml, 50-2000 ng/ml, 48 hours
Procedure: as §2, §1

[8] = system: human fibroblasts from OA patients; assay: Apoptosis induction, annexin V/PI flow cytometry, OA fibroblasts; format: cell-based; details: for total cell population in the apoptotic area: 24 h, no-addition control 39.5%
Procedure: as §3

TNFα [9] = assay: TNFα levels in media of NIH 3T3 fibroblasts (negative control cells); format: cell-based, murine; details: LPS 3 μg/ml, 50-2000 ng/ml, 48 hours
Procedure: as §1

[10] = system: synovial fluid cells from RA patients; assay: Apoptosis induction, annexin V/PI flow cytometry, synovial fluid cells; format: cell-based, human; details: inflammatory cells from joints of arthritic patients, lowest concentration 50 ng/ml
Procedure: as §3

[11] = PBLs from RA patients, listed as galectin-8 var. 1
[12] = human fibroblasts from OA patients
[13] = human fibroblasts from OA patients, listed as galectin-8 var. 1
[14] = synovial fluid cells (SFCs), listed as galectin-8 var. 1

B1: galectin-8 variant 1: recombinant galectin-8 variant 1 polypeptide, SEQ ID NO: 6, isoform found in synovial fluid cells of arthritic patients (protein)
chain: MMLSLNNLQNIIYNPDLQSTQASSLELTEISRENVPKSGTPQLPSNRGGDISKIAPRTVYTKSKEARQSHFDLHENTTYELCVKSLPFAARLNTPMGPGRTVVVKGEVNANAKSFNVDLLAGKSKDIALHLNPRLNIKAFVRNSFLQESWGEEERNITSFPFSPGMYFEMIIYCDVREFKVAVNGVHSLEYKHRFKELSSIDTLEINGDIHLLEVRSW
IL-1β [1]
  IL-1β levels in media: No effect
IL-1β [1]; listed as galectin-8 var. 1
  IL-1β levels in media: remain unaffected
IL-1β [2]; PBLs from RA patients
  IL-1β levels in media: significantly and dose-dependently inhibited
IL-1β [2]; [11]
  IL-1β levels in media: decrease
IL-1β [2]; [12]
  IL-1β levels in media: significantly and dose-dependently inhibited
IL-1β [2]; [13]
  IL-1β levels in media: decrease
IL-1β [2]; synovial fluid cells (SFCs)
  IL-1β levels in media: significantly and dose-dependently inhibited
IL-1β [2]; [14]
  IL-1β levels in media: decrease
IL-1ra [3]; PBLs of RA patients
  IL-1ra levels in media: significantly and dose-dependently increased
IL-1ra [3]; PBLs of RA patients, listed as galectin-8 var. 1
  IL-1ra levels in media: decrease
IL-1ra [3]; [12]
  IL-1ra levels in media: significantly and dose-dependently increased
IL-1ra [3]; [13]
  IL-1ra levels in media: decrease
IL-1ra [3]; synovial fluid cells (SFCs)
  IL-1ra levels in media: significantly and dose-dependently increased
IL-1ra [3]; [14]
  IL-1ra levels in media: decrease
[4]
  maximal apoptotic effect: approximately 100%
IL-1ra [5]
  IL-1ra levels in media: No effect
IL-1ra [5]; listed as galectin-8 var. 1
  IL-1ra levels in media: remain unaffected
[6]
  recovery of joints (histopathology): recovered, most of them completely and some at least partly
TNFα [7]; PBLs from RA patients
  TNFα levels in media: significantly and dose-dependently inhibited
TNFα [7]; [11]
  TNFα levels in media: decrease
TNFα [7]; [12]
  TNFα levels in media: significantly and dose-dependently inhibited
TNFα [7]; [13]
  TNFα levels in media: decrease
TNFα [7]; synovial fluid cells (SFCs)
  TNFα levels in media: significantly and dose-dependently inhibited
TNFα [7]; [14]
  TNFα levels in media: decrease
[8]; 50 ng/ml
  total cell population in the apoptotic area: 32.5%
[8]; 125 ng/ml
  total cell population in the apoptotic area: 47.5%
[8]; 250 ng/ml
  total cell population in the apoptotic area: 48.4%
[8]; 500 ng/ml
  total cell population in the apoptotic area: 55.5%
[8]; 750 ng/ml
  total cell population in the apoptotic area: 58.5%
[8]; 1000 ng/ml
  total cell population in the apoptotic area: 77%
[8]; 2000 ng/ml
  total cell population in the apoptotic area: 77%
[8]; increasing concentrations (50-2000 ng/ml)
  percentage of apoptotic cells: gradually increased
TNFα [9]
  TNFα levels in media: No effect
TNFα [9]; listed as galectin-8 var. 1
  TNFα levels in media: remain unaffected
[10]
  maximal apoptotic effect: approximately 100%
